Experimental data: paper doi:10.1101/335232 (bioRxiv, 2018)

Molecular target: the molecule itself
Assay: SEC-MALS

B1: Human apolipoprotein-D (apoD) from breast cyst fluid (natural protein, UniProt P05090 21-189, looked up)
chain: QAFHLGKCPNPPVQENFDVNKYLGRWYEIEKIPTTFENGRCIQANYSLMENGKIKVLNQELRADGTVNQIEGEATPVNLTEPAKLEVKFSWFMPSAPYWILATDYENYALVYSCTCIIQLFHVDFAWILARNPNLPPETVDSLKNILTSNNIDVKKMTVTDQVNCPKLS
modifications: N-linked glycosylation at N45 and N78 (mature numbering)
stoichiometry N: 4
